The values below come from patent US20130123471A1.

The target in assay [1] is human CEA antigen (human) (UniProt P06731). The assay can be described thus: competitive inhibition ELISA on coated CEA, 80 ng human IgG1 against 2.5 ng parent mouse antibody. For orientation: In an ELISA, binding on a coated surface is turned into a signal by an enzyme label.
The target is the same in assay [2]. Put plainly: direct ELISA on coated CEA, 100 ng/ml, goat-anti-mouse IgG Fc-HRP secondary (background level; this secondary does not detect human Ig).
For assay [3] the target is unchanged. The assay can be described thus: ELISA, CEA coating, sample 100 ng/ml, goat-anti-human IgG Fc-HRP (background level).
Assay [4] has the same target. Put plainly: direct ELISA on coated CEA, 100 ng/ml, goat-anti-human IgG Fc-HRP secondary (background level).
Assay [5] has as its target anti-CEA humanized chimeric antibody. Put plainly: direct ELISA: chimeric antibody (100 ng/ml) on coated CEA, detected with goat-anti-mouse IgG Fc-HRP (background level).

Sequence of UniProt P06731 (P06731 35-685 limits assumed): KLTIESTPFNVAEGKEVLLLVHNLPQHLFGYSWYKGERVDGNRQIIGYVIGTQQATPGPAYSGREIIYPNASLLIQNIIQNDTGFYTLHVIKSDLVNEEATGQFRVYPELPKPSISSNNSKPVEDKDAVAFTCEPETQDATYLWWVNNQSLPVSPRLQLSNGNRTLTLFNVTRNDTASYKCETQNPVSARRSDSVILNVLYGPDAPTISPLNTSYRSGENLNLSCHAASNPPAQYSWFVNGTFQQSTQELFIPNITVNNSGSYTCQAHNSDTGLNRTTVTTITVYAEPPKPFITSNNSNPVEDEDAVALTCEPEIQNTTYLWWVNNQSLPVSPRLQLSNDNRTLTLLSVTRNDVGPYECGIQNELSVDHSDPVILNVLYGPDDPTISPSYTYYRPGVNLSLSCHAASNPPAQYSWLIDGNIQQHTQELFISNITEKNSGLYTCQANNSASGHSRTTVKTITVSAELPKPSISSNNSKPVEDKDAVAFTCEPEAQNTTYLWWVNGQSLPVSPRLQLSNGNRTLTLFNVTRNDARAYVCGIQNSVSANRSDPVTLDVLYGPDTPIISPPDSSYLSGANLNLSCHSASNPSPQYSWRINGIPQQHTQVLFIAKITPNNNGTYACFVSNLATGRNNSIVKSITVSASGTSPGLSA
Sequence of anti-CEA humanized chimeric antibody (VH, as listed by the source, chain 1 of 2): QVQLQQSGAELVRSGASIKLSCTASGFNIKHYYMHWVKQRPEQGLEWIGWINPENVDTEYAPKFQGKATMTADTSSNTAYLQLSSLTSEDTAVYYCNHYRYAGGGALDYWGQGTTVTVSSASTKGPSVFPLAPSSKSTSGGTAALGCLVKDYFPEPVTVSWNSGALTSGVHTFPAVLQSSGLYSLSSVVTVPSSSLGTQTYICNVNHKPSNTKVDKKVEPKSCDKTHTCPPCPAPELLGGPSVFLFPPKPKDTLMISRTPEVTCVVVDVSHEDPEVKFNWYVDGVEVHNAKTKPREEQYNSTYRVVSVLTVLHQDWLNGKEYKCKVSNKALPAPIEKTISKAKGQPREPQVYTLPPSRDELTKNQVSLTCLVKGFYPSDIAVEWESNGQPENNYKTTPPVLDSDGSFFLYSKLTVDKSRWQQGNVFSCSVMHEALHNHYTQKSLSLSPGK
Sequence of anti-CEA humanized chimeric antibody (VL, as listed by the source, chain 2 of 2): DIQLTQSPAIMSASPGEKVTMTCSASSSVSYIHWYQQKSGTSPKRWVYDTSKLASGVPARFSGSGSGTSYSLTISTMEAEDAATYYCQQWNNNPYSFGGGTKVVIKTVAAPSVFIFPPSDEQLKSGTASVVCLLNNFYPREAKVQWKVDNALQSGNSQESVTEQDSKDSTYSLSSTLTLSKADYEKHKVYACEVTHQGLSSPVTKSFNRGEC

Take irrelevant antibody human IgG1: the Inhibition rate (%) in assay [1] was -12.8%. For the same substance, the values for the OD490 in assay [2], in assay [3] and in assay [4] were 0.077 OD490, 0.072 OD490 and 0.079 OD490, respectively.

For the substance “goat-anti-mouse IgG Fc fragment-HRP (antibody)”, the OD490 in assay [5] was found to be 0.072 OD490.
